The record followed here is patent publication US20220275097A1.

The labels stand for the following.
B1: S2H7 (antibody, V domains shown)
VH: QVQLLQSGGGVVQPGRSLRLSCAASGFTFSSYGMHWVRQAPGKGLEWVAVISYDGSNKYYADSVKGRFTISRDNSKNTLYLQMNSLRAEDTAVYYCATRYENYFSTWGQGTLVTVSS
VL: EIVLTQSPGTLSLSPGERATLSCRASQSVSSNYLAWYQQKPGQAPRLLIYGASSRPTGIPDRFSGSGSGTDFTLTISRLEPEDFAVYYCQQYAASPLTFGGGTKLEIK
B2: S2H5 (antibody, V domains shown)
VH: QVQLLQSGGGVVQPGRSLRLSCAASGFTFSSYGMHWVRQAPGKGLEWVAVISYDGSNKYYADSVKGRFTISRDNSKNTLYLQMNSLRAEDTAVYYCASRYENYFSLWGQGTLVTVSS
VL: EIVLTQSPGTLSLSPGERATLSCRASQSVSSNYLAWYQQKPGQAPRLLIYGASSRPTGIPDRFSGSGSGTDFTLTISRLEPEDFAVYYCQQYAASPLTFGGGTKLEIK
B3: S2H3 (antibody, V domains shown)
VH: QVQLLQSGGGVVQPGRSLRLSCAASGFTFSSYGMHWVRQAPGKGLEWVAVISYDGSNKYYADSVKGRFTISRDNSKNTLYLQMNSLRAEDTAVYYCAGVRENYFTYWGQGTLVTVSS
VL: EIVLTQSPGTLSLSPGERATLSCRASQSVSSNYLAWYQQKPGQAPRLLIYGASSRPTGIPDRFSGSGSGTDFTLTISRLEPEDFAVYYCQQYAASPLTFGGGTKLEIK
B4: S2H1 (antibody, V domains shown)
VH: QVQLLQSGGGVVQPGRSLRLSCAASGFTFSSYGMHWVRQAPGKGLEWVAVISYDGSNKYYADSVKGRFTISRDNSKNTLYLQMNSLRAEDTAVYYCASLYENYFSLWGQGTLVTVSS
VL: EIVLTQSPGTLSLSPGERATLSCRASQSVSSNYLAWYQQKPGQAPRLLIYGASSRPTGIPDRFSGSGSGTDFTLTISRLEPEDFAVYYCQQYAASPLTFGGGTKLEIK
B5: S2H2 (antibody, V domains shown)
VH: QVQLLQSGGGVVQPGRSLRLSCAASGFTFSSYGMHWVRQAPGKGLEWVAVISYDGSNKYYADSVKGRFTISRDNSKNTLYLQMNSLRAEDTAVYYCATFRENYFEYWGQGTLVTVSS
VL: EIVLTQSPGTLSLSPGERATLSCRASQSVSSNYLAWYQQKPGQAPRLLIYGASSRPTGIPDRFSGSGSGTDFTLTISRLEPEDFAVYYCQQYAASPLTFGGGTKLEIK

The target of the assay is leptin receptor on reporter cells (SIE-luciferase reporter cells; Ba/F3-lepR reporter cells), P48357. Description: cell-based or functional assay.
leptin receptor on reporter cells (SIE-luciferase reporter cells; Ba/F3-lepR reporter cells), P48357, sequence (P48357 22-1165): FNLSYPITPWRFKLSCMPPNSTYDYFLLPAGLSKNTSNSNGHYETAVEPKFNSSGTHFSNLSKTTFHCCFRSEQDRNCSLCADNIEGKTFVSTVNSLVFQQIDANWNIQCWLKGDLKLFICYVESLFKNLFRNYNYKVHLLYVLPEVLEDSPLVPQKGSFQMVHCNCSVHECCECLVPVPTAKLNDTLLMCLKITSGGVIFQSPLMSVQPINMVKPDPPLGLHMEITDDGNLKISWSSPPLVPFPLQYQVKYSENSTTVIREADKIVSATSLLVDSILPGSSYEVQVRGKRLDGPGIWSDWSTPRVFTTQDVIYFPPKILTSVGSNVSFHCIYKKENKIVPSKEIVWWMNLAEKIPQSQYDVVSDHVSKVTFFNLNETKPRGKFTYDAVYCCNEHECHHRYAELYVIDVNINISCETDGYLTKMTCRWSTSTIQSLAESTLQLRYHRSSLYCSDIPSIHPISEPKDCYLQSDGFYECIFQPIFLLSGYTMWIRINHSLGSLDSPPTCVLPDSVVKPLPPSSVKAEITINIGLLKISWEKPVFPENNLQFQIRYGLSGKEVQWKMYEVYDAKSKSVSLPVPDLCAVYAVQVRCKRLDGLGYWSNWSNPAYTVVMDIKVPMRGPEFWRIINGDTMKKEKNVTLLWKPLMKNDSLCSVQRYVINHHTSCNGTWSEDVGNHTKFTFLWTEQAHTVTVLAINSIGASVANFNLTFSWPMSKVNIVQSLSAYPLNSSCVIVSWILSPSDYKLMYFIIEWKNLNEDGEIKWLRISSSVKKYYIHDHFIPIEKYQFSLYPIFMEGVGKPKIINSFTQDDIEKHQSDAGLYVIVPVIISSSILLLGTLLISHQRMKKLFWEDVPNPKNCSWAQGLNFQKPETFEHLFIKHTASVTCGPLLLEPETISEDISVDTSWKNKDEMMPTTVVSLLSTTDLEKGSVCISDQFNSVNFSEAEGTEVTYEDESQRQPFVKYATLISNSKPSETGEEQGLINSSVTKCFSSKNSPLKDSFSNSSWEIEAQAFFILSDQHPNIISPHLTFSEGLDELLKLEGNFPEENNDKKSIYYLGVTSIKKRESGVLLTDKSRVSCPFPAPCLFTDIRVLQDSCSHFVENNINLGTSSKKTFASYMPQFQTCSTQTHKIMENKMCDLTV
As to B1, the EC50(M), Cell proliferation assay (Ba/F3-lepR) was 1.15e-09 M; the EC50(M), Luciferase assay stood at 4.94e-10 M; the EC50, SIE-luciferase reporter assay stood at 0.494 nM.

In the case of B2, the EC50(M), Cell proliferation assay (Ba/F3-lepR) was determined as 1.63e-09 M; the EC50(M), Luciferase assay amounted to 7.38e-10 M; the EC50, SIE-luciferase reporter assay was 0.738 nM.

In the case of B3, the EC50(M), Cell proliferation assay (Ba/F3-lepR) is 1.93e-10 M; the EC50(M), Luciferase assay turned out to be 3.28e-10 M; the EC50, SIE-luciferase reporter assay came to 0.328 nM.

The molecule B4 showed an EC50(M), Cell proliferation assay (Ba/F3-lepR) of 4.19e-10 M; an EC50(M), Luciferase assay of 4.53e-10 M; an EC50, SIE-luciferase reporter assay of 0.453 nM.

B5 yielded an EC50(M), Cell proliferation assay (Ba/F3-lepR) of 6.87e-10 M; an EC50(M), Luciferase assay of 6.52e-10 M; an EC50, SIE-luciferase reporter assay of 0.652 nM.
